Earlier results in publication PMC2957019 (Journal of labelled compounds & radiopharmaceuticals, 2009).
Where no end group is shown, it is not given here.

Settings: incubation in serum

^125I-FROP-1: 12-amino acid synthetic peptide radiolabeled with iodine (EDYELMDLLAYL), selected by phage display for targeting thyroid carcinoma cells (also: 125I radiolabel)
time to degradation in serum: ≤ 30 min
